Laboratory results published in the supplement of paper PMC10567573.

B1: ATL3 (parent)
chain: FSFRYQQELEEEIKELYENFCKHN
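Further: lentivirally expressed fusions sorted by FACS into six bins by GFP to DsRed ratio, PSI derived from sequencing read proportions per bin multiplied by bin number.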

Variants of: B1
Test: protein stability index of a GFP-peptide fusion (GPS, HEK-293T) (PSI 1-6); higher = more stable
Conditions: c terminus: a fixed tail appended
In the case of FSFRYQQELEEEIKTLYENFCKHN [E15T], the protein stability index is reported as 1.83.
Variant FSFRYQQELEEEIKVLYENFCKHN [E15V] has a protein stability index of 2.33.
Work on FSFRYQQELEEEIKALYENFCKHN [E15A] yielded a protein stability index of 1.38.
Variant FSFRYQQELEEEIKLLYENFCKHN [E15L] has a protein stability index of 1.96.
FSFRYQQELEEEIKWLYENFCKHN [E15W] gave a protein stability index of 2.29.
FSFRYQQELEEEIKGLYENFCKHN [E15G] gave a protein stability index of 1.56.
Variant FSFRYQQELEEEIKMLYENFCKHN [E15M] has a protein stability index of 1.39.
Work on FSFRYQQELEEEIKFLYENFCKHN [E15F] yielded a protein stability index of 1.56.
For FSFRYQQELEEEIKCLYENFCKHN [E15C], the protein stability index was 1.67.
For FSFRYQQELEEEIKQLYENFCKHN [E15Q], the protein stability index was 1.91.
For FSFRYQQELEEEIKNLYENFCKHN [E15N], the protein stability index was 1.75.
Variant FSFRYQQELEEEIKRLYENFCKHN [E15R] has a protein stability index of 2.06.
For FSFRYQQELEEEIKSLYENFCKHN [E15S], the protein stability index was 2.03.
FSFRYQQELEEEIKILYENFCKHN [E15I] showed a protein stability index of 1.71.
FSFRYQQELEEEIKKLYENFCKHN [E15K] gave a protein stability index of 2.96.
Variant FSFRYQQELEEEIKYLYENFCKHN [E15Y] has a protein stability index of 1.8.
Work on FSFRYQQELEEEIKDLYENFCKHN [E15D] yielded a protein stability index of 2.59.
Variant FSFRYQQELEEEIKPLYENFCKHN [E15P] has a protein stability index of 1.59.
With FSFRYQQELEEEIKHLYENFCKHN [E15H] the protein stability index was 2.15.
Variant FSFRYQQELEQEIKELYENFCKHN [E11Q] has a protein stability index of 2.18.
FSFRYQQELEYEIKELYENFCKHN [E11Y] gave a protein stability index of 1.6.
In the case of FSFRYQQELEWEIKELYENFCKHN [E11W], the protein stability index is reported as 1.8.
FSFRYQQELEAEIKELYENFCKHN [E11A] gave a protein stability index of 2.76.
Work on FSFRYQQELEVEIKELYENFCKHN [E11V] yielded a protein stability index of 1.53.
FSFRYQQELENEIKELYENFCKHN [E11N] showed a protein stability index of 2.69.
Variant FSFRYQQELEIEIKELYENFCKHN [E11I] has a protein stability index of 2.11.
For FSFRYQQELEHEIKELYENFCKHN [E11H], the protein stability index was 2.29.
With FSFRYQQELEMEIKELYENFCKHN [E11M] the protein stability index was 2.37.
Variant FSFRYQQELEDEIKELYENFCKHN [E11D] has a protein stability index of 2.38.
FSFRYQQELEKEIKELYENFCKHN [E11K] gave a protein stability index of 2.55.
FSFRYQQELESEIKELYENFCKHN [E11S] showed a protein stability index of 2.58.
With FSFRYQQELEFEIKELYENFCKHN [E11F] the protein stability index was 1.45.
In the case of FSFRYQQELEPEIKELYENFCKHN [E11P], the protein stability index is reported as 2.25.
FSFRYQQELEREIKELYENFCKHN [E11R] gave a protein stability index of 1.98.
Work on FSFRYQQELELEIKELYENFCKHN [E11L] yielded a protein stability index of 1.58.
FSFRYQQELEGEIKELYENFCKHN [E11G] gave a protein stability index of 2.21.
Work on FSFRYQQELETEIKELYENFCKHN [E11T] yielded a protein stability index of 2.74.
FSFRYQQELECEIKELYENFCKHN [E11C] gave a protein stability index of 1.61.
FSFRYQQELEEEIKELNENFCKHN [Y17N] gave a protein stability index of 3.09.
For FSFRYQQELEEEIKELMENFCKHN [Y17M], the protein stability index was 2.68.
With FSFRYQQELEEEIKELDENFCKHN [Y17D] the protein stability index was 2.92.
Variant FSFRYQQELEEEIKELFENFCKHN [Y17F] has a protein stability index of 2.16.
Work on FSFRYQQELEEEIKELTENFCKHN [Y17T] yielded a protein stability index of 3.76.
For FSFRYQQELEEEIKELLENFCKHN [Y17L], the protein stability index was 2.36.
Work on FSFRYQQELEEEIKELGENFCKHN [Y17G] yielded a protein stability index of 4.22.
In the case of FSFRYQQELEEEIKELWENFCKHN [Y17W], the protein stability index is reported as 2.48.
For FSFRYQQELEEEIKELCENFCKHN [Y17C], the protein stability index was 3.09.
With FSFRYQQELEEEIKELVENFCKHN [Y17V] the protein stability index was 3.33.
With FSFRYQQELEEEIKELSENFCKHN [Y17S] the protein stability index was 3.49.
FSFRYQQELEEEIKELRENFCKHN [Y17R] showed a protein stability index of 2.73.
With FSFRYQQELEEEIKELAENFCKHN [Y17A] the protein stability index was 3.16.
In the case of FSFRYQQELEEEIKELQENFCKHN [Y17Q], the protein stability index is reported as 4.02.
Work on FSFRYQQELEEEIKELPENFCKHN [Y17P] yielded a protein stability index of 4.27.
FSFRYQQELEEEIKELEENFCKHN [Y17E] gave a protein stability index of 3.97.
Variant FSFRYQQELEEEIKELKENFCKHN [Y17K] has a protein stability index of 2.89.
Variant FSFRYQQELEEEIKELHENFCKHN [Y17H] has a protein stability index of 3.05.
Variant FSFRYQQELEEEIKELIENFCKHN [Y17I] has a protein stability index of 2.92.
FSFRYQQELEELIKELYENFCKHN [E12L] gave a protein stability index of 2.74.
Work on FSFRYQQELEEAIKELYENFCKHN [E12A] yielded a protein stability index of 1.97.
FSFRYQQELEEMIKELYENFCKHN [E12M] showed a protein stability index of 1.76.
FSFRYQQELEESIKELYENFCKHN [E12S] showed a protein stability index of 2.03.
FSFRYQQELEEVIKELYENFCKHN [E12V] gave a protein stability index of 2.08.
Variant FSFRYQQELEERIKELYENFCKHN [E12R] has a protein stability index of 1.76.
Variant FSFRYQQELEEQIKELYENFCKHN [E12Q] has a protein stability index of 2.53.
Work on FSFRYQQELEETIKELYENFCKHN [E12T] yielded a protein stability index of 1.79.
FSFRYQQELEEGIKELYENFCKHN [E12G] showed a protein stability index of 2.1.
FSFRYQQELEEWIKELYENFCKHN [E12W] showed a protein stability index of 2.04.
Variant FSFRYQQELEEFIKELYENFCKHN [E12F] has a protein stability index of 1.91.
With FSFRYQQELEEIIKELYENFCKHN [E12I] the protein stability index was 2.07.
For FSFRYQQELEEDIKELYENFCKHN [E12D], the protein stability index was 2.84.
FSFRYQQELEEKIKELYENFCKHN [E12K] gave a protein stability index of 2.27.
With FSFRYQQELEEHIKELYENFCKHN [E12H] the protein stability index was 2.29.
For FSFRYQQELEECIKELYENFCKHN [E12C], the protein stability index was 1.76.
With FSFRYQQELEENIKELYENFCKHN [E12N] the protein stability index was 2.09.
For FSFRYQQELEEYIKELYENFCKHN [E12Y], the protein stability index was 2.06.
With FSFRYQQELEEPIKELYENFCKHN [E12P] the protein stability index was 2.17.
Work on FSFRYQQEWEEEIKELYENFCKHN [L9W] yielded a protein stability index of 2.66.
FSFRYQQEYEEEIKELYENFCKHN [L9Y] showed a protein stability index of 2.24.
For FSFRYQQEVEEEIKELYENFCKHN [L9V], the protein stability index was 2.11.
In the case of FSFRYQQELEEEIKELYEFFCKHN [N19F], the protein stability index is reported as 1.72.
In the case of FSFRYQQELEEEIKELYEDFCKHN [N19D], the protein stability index is reported as 1.44.
In the case of FSFRYQQELEEEIKELYEKFCKHN [N19K], the protein stability index is reported as 1.92.
In the case of FSFRYQQELEEEIKELYEIFCKHN [N19I], the protein stability index is reported as 2.04.
Work on FSFRYQQELEEEIKELYERFCKHN [N19R] yielded a protein stability index of 2.31.
FSFRYQQELEEEIKELYEPFCKHN [N19P] showed a protein stability index of 2.16.
Variant FSFRYQQELEEEIKELYECFCKHN [N19C] has a protein stability index of 2.02.
Work on FSFRYQQELEEEIKELYESFCKHN [N19S] yielded a protein stability index of 2.41.
With FSFRYQQELEEEIKELYEMFCKHN [N19M] the protein stability index was 1.66.
Variant FSFRYQQELEEEIKELYEEFCKHN [N19E] has a protein stability index of 2.06.
FSFRYQQELEEEIKELYEAFCKHN [N19A] gave a protein stability index of 2.28.
Work on FSFRYQQELEEEIKELYEQFCKHN [N19Q] yielded a protein stability index of 2.04.
Work on FSFRYQQELEEEIKELYELFCKHN [N19L] yielded a protein stability index of 1.98.
In the case of FSFRYQQELEEEIKELYEHFCKHN [N19H], the protein stability index is reported as 1.97.
For FSFRYQQELEEEIKELYEGFCKHN [N19G], the protein stability index was 1.73.
